# Data as given in patent US20240026407A1, “MODIFICATION OF SAPONINS” (GLAXOSMITHKLINE BIOLOGICALS SA, priority 2020, published 2024).
# B1: 339 (protein, listed as Koribacter versatilis)
# chain: MKISRVFLATTLALSMFGSAQRPDPRAELMKKPWMDKNKSADERAELVLKEMTVDEKINLIHGQGMEEMAEFGIPMPNKALGNGGAGFVLGVERLGIPLIQMSDAAYGVRSSAKNGRYSTALPSNLGSAASWDPQAACEYGALIGRELRAQGYNMTLGGGVNITREPRNGRTFEYMGEDPILAGTLVGNRIKCEQAQHVIGDTKHYAVNDQESGRTEVDVVISKRAMRETDLLAFEIGIEIGQPGAVMCSYNLVNGTYACQNKYLLTDVLKKDWNFKGFVVSDWGATHSTIESSAAGLDNEQPFGIFYSDKFKAGLDSGKIPMSELDDHVRRILRTEFASGIVDNPVVKAVVDVEAGLETARKIEEGSIVLLKNGNNILPLDKDSIKSVAIIGEKADFGMISGGGSAQVDPPGPSHEWQAHVWFPTSPLKAVQAKLPNAKVDWRSGSDKSKAAALAKQSDIAIVFVHQWISEGMDLPDLTLPFGQDELIERVAAANPRTIVVLESGTAVTMPWLDKVSGVVEAWYGGSKGADAVANILFGDVNPSGKLPMTFPRSVEDVPHPKLAVPPPNPNPMETYMHPELAKATVTATYDEGVKVGYKWYDAEKKPVLFPFGFGLSYTTYQYSGLKVSSGKTTTVSFTVKNTGKRGGDEIAQVYASLPAEAQEPPKRLVGFTKVHLNAGESKEVSVTVPAKYLSVFDEASNGWKLVPGSYSFMVGGSSQDLPQKQSATF
# B2: 365 (protein)
# chain: MEDDGANSKTELSDQRKVALLSGADDWHTEAVPELGLEAVMMADGPHGLRKVMSASLADLQASEPATCFPTGSALAATWDRVLAGDVGRAIGREAVAEGVGVVLGPAVNLKRHPAAGRNFEYFSEDPFLAGELAVAWIDGVQGEGVGASLKHFAVNNQEANRMVVDAVVDPATLRELYLGAFEAAVRRSRPWTVMSAYNLLNGVYCSEDPWLLSELLRDQWGFDGLVVTDWGANDDRVAGIRAGQDLEMPGGHGTHDAAVLAALADGSLHRADLDGCVRRVLALLERADGARSGRPGSAMASPRPGADPDALHREHHQLARRAAAAGTVLLTNDGTLPLAPSGHVALIGEFAAHPRFQGGGSSQVKATRSDNLHAELRTHVDAAGGRVQYAPGYVLRARDDRPGEPARRVDEAVSIARGAEVAVVVVGLPDAVESEGFDRDHLHLPESHNILVRAVCAANPNTVVIVVAGSPVTMDWVDQPAAIIHGYLGGQAAGGALADVLVGAAEPGGRLAETFPVRSAGVASDRWFPGEPHQVTYREGPYIGYRWFDASGATPLFPFGHGLSYAEITLGVPTLSAQHVDAGVLLGGTDVVAPAEVPPPGAGPVAFTVTVPLTNAGDRAGSEVVQVYLESPDTGRPAAHRHLVGFAKVNLEPNSTREATVDVHARALCHWHPADRGWAVSAGTWGVAVGCSSGNLPHGLMVEVASSWSAPEPDPALDPYRNPRPDDWDPGVAAFEALLGRSVPEPTPVRPFTRNTTLGELGETRLGRPLLALVRAIVAHTTGGAHDEGGLGAMIDRSLGELPLRNLAVMSQGRVPMSAINRLIALANRMPGHPAGHPPGRPPGRSVGFTRPGRRR
# modifications: Candidatus microthrix
# B3: 176 (protein, listed as Streptomonospora sp.)
# chain: MTTANRAAHAADAAREPQVEAALARLDLDGRIRLLSGATMWAIAPNPDIGLERLVMSDGPVGVRGEHWTPDDPALQLPSPTALAATWDTELIRTVGRTLAQEARRKGVHVLLAPTVNIHRSPLGGRHFECYSEDPLLTGRIGTAYVDGVQDGGVGTTVKHFVANDSETDRFTVDVRVDERTLREIYLAPFEAIVDGARPWGVMAAYNGVNGTTMTEHARLNAVLRDEWGFDGFIVSDWTAARDTVGCALAGMDVAMPGPSTVYGENLRAAVREGRVPEGAVEAMARRVLRLAARVGALEGAEPAVAPAALPPAIDGRAVAREAAARSFTLLRNEGRALPIDPARVGSVALIGLAADEARTSGGGSATVFTEHTVSPREGLRAALPESVRLDYAVGADPRASLPPLAGPLTAAFRDADGTVLATERLADGTARWIGELPDGVTAEGLSTIEVSGTLTPAYTGTHVFGAKGVGHFRLAVGGRVGFDGVNEVDGDDPGAGFLNPPESTAEFALTAGEAVEVSVVATVPGVSADFAFIGFSLNHSEPRAGDDELIEEAVRTAAGADVAIVIAATTEEVESEGFDRDSLELPGRQDELVSRVAAANPRTVAVVNTGSPVVMPWRGDVAAVLLTWFGGQELGAALADVLLGAEEPGGRLPTTWPAEQADVPVIGVRPDGGVLEYSEGVFVGYRAWQRLGAEPAYWFGHGLGYTTWDYTGADAAVRLDGGVSVTARLANTGARRGREVVQVYVSPQEEGGAPERPRRWLAGFAPVVAEPGASAEAVVEVPARAFQVWDSAAHDWRTVPGGYDVLVGRSVADTPVSARVEIAG
# B4: 63 (protein, listed as Gynuella sunshinyii)
# chain: MFDPVTILKQLNREEKVQLLCGLDAWHLHGVERLGIPSITLTDGPHGVRLAQSHDVFDSVDATVFPVEAAMAATWNVGLIKELAGAIAKECQQLGVSVLLGPGVNGKRSPLGGRNFEYFSEDPYLTGAMASNFVEGVQSQGVGACLKHFAGNEQETRRFLINSVIDERTLQEMYIAPFAKAIRESRPWTVMGAYNSVNGQFACQNSHLLQDILRDQLGFDGLVMSDWGAVGDKVACHQHGLDLEMPGPADRDQQLLDALDNGDMSEVVLDSRVLKVLELIHKSVTHKRDVQVDFERHHELAIEVACDSAVLLKNSGNLPLDKSRSIGLIGQFAKHPRFQGGGSSHMNPRHLSNAFEAFCSRAEVSWAMGYEELEMTDEMLREAVALAKRVDQVVLLTGTTDALESEGFDRSNMRLPEAHVELIKAVYQTNSNVVVVMYAGSALETRQIEDYAPSLMHAWLPGEGGGEALARLLFGEVSPSGKLSETFPVRLEHNPTYESFPGNKADTIYNEGIFTGYRYYDTKKLPVQYPFGYGLSYTSFAYSDLSYDASCREVAVNVTNIGDMAGAEVVQVYIHDEHSTLRRPDQELKGFAKVMLQPGETQRVSIALDEQAFAYFVTHLQRFAEESGRFEIRVGSSSRDIHESLWIELESDIECRQIPTLNDTVEDWLRDDRTRPILEDAFAQVGFTKDHSFYALTLGFPMTLLKKFMPMMGLTEQQCESLKDKLGLE
# B5: 229 (protein, listed as Nectria haematococca)
# chain: MASVDIPAILATLSLEEKVSLLAGKNLWETVPVPSKGVPNVKVSDGPNGARGASFAGGTTAACFPAACLMASTFDVKLAKRIGSALAEETQSKGARCLLAPTMCLHRHPLGGRNFESFSEDPLLTGKMAARVVEGLQDKGVSATIKHFAVNEQETDRLTVDETVNERALRELYLRPFEIAVKEANPWAVMTAYNKINGHHADCHPFTLKKVLRGDWGWNGLVMSDWGGTNSTPDSLEAGLDLEMPGPTRWRKPEDVIAAIKEGKTSEKTIDERATNVLRFLERLGCFKDPTIPDEKAINKPEHQALIREAGSKGIVLLKNQDKILPLSKEKVKGKKIALLGHAKIGLAHGGGSASVSAHYKVTPWDALHEALGDSVEFSYAKGAHTFRTLPAIAENVVGLDGKPGFTFKVYEPGSSEPIETRHGHADSEVSALGSFGFLNKDVSLEGAFTPQETAQYYFTCSGLGPSKLIIDDKVVYEQTENCSDAMGFLFGGVAAPEFKVALEAGRQYKLVLRTSPPSANDREDLGILEGLCGLRVGSMSESEHDRDLVSEAVEVAKNADYAVIFTGHEPFWETEGQDQVSFNLPKDGSQDRLISAVAAANPNTVVVNSTGVAIAMPWLNEIQGFLQTWYPGQECGNSIADVLTGAQTPEGHLTCTFPKKIEDCPAYGNFPGEYDNGKLKVTYKEGVFIGYRHFDRLPADKVNFPFGFGLSYTTFDFSSLEVKESGEGYTASLKVSNTGDVVGAIAVQVYVGAAQTAEENPVKQLVAFEKVTVKPGETASVEVPVRTRDFGFFDESKQKWVVKGGDYKFLIGKSARDIVLESTVAVKEQSFDL
# Experiment: Experiment 4-2: screening of glucosidases for deglycosylation with purified QS-18 (1 mg/ml) at pH 6 and 30 deg C
# Assay type: biochemical, Quillaja saponaria
# Conditions: pH 6, 30 degC, 18 hrs, clarified lysate, LCMS/MS
# How it was run: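 Enzyme activity derived from LC-MS/MS analysis after MeCN quench. Substrate QS-18 (1 mg/ml final) was exposed overnight (18 h, 30 °C, pH 6 phosphate buffer) to clarified lysates containing candidate glucosidases.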
row,Molecule,Expt 4-2 % conv
1,B1,0.5%
2,B2,0.4%
3,B3,0.4%
4,B4,54.2%
5,B5,14.2%

# Experiment: Experiment 4-1: screening of glucosidases for deglycosylation with purified QS-18 (0.04 mg/ml) at pH 7.5 and room temperature
# Assay type: biochemical, Quillaja saponaria
# Conditions: pH 7.5, room temperature, 20 h, clarified E. coli lysate, QS-18 2150 to QS-21 1988 by LCMS/MS
# How it was run: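 Deglycosylation measured by LC-MS/MS as % conversion after 20 h room-temperature incubation of QS-18 phenyl fraction (0.04 mg/ml final) with polymyxin B/lysozyme lysates, pH 7.5 phosphate, of E. coli BL21(DE3) expressing each enzyme; MeCN quench. Positives exceeded negative control by >3 S.D.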
row,Molecule,Expt 4-1 % conv
1,B1,1.4%
2,B2,1.3%
3,B3,1.2%
4,B4,95.6%
5,B5,91.1%

# Experiment: Experiment 4-4: screening of glucosidases for deglycosylation of QS-18 in crude bark extract (1 in 20 dilution) to QS-21
# Assay type: biochemical, Quillaja saponaria
# Conditions: CBE 1 in 20 dilution, pH 6, 25 degC, 18 hours; % conversion of Middle Peak by UV HPLC
# How it was run: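 Clarified glucosidase lysates were incubated with pH 6 crude bark extract (1 in 20) in potassium phosphate buffer pH 6 for 18 h at 25 °C with shaking, then quenched with MeCN. UV HPLC with MS/MS-supported peak identity; activity is % conversion of the extract's Middle Peak (QS-18 family) toward the QS-21 peak.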
row,Molecule,Expt 4-4 % conv
1,B1,<3%
2,B2,<3%
3,B3,<3%
4,B4,<3%
5,B5,<3%
